Experiment [1] concerns the target T1, eukaryotic initiation factor 4E (eIF4E) (UniProt P06730 1-217). The experiment is described as follows: fluorescence correlation spectroscopy.
The target in experiment [2] is T1, eukaryotic initiation factor 4E (eIF4E). The experiment is described as follows: fluorescence anisotropy decay.

Residue numbers refer to the chain shown, from its start. Names may count otherwise.

T1 sequence (P06730 whole entry): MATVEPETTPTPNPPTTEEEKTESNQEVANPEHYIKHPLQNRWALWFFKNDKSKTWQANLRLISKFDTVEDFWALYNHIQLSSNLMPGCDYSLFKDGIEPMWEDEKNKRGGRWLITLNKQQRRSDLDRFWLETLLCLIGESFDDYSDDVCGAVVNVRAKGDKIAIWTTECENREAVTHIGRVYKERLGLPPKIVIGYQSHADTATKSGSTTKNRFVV

B1: 4E-BP2 C91 (C35S/C73S/S91C), non-phosphorylated, labelled with Atto488 at position 91 (natural protein, UniProt Q13542 1-120, looked up)
chain: MSSSAGSGHQPSQSRAIPTRTVAISDAAQLPHDYSTTPGGTLFSTTPGGTRIIYDRKFLLDRRNSPMAQTPPSHLPNIPGVTSPGTLIEDCKVEVNNLNNLNNHDRKHAVGDDAQFEMDI
modifications: Atto488 maleimide on cysteine 91
For B1, the binding result in experiment [1] is on record as “binds”.

B2: 4E-BP2 C14 (S14C/C35S/C73S), non-phosphorylated, labelled with Atto488 at position 14 (natural protein, UniProt Q13542 1-120, looked up)
chain: B1 chain with S14C, C91S
modifications: Atto488 maleimide on cysteine 14
For the molecule B2, the binding result in experiment [2] was “binds”.

B3: 4E-BP2 C73 (C35S), non-phosphorylated, labelled with Atto488 at position 73 (natural protein, UniProt Q13542 1-120, looked up)
chain: B1 chain with S73C, C91S
modifications: Atto488 maleimide on cysteine 73
For B3, the binding result in experiment [1] is on record as “binds”.

B4: 4E-BP2 C35 (C73S), non-phosphorylated, labelled with Atto488 at position 35 (natural protein, UniProt Q13542 1-120, looked up)
chain: B1 chain with S35C, C91S
modifications: Atto488 maleimide on cysteine 35
As for B4, the binding result in experiment [2] is on record as “binds”.

B5: 4E-BP2 C121 (C35S/C73S/C121ins), non-phosphorylated, labelled with Atto488 at position 121 (natural protein, UniProt Q13542 1-120, looked up)
chain: MSSSAGSGHQPSQSRAIPTRTVAISDAAQLPHDYSTTPGGTLFSTTPGGTRIIYDRKFLLDRRNSPMAQTPPSHLPNIPGVTSPGTLIEDSKVEVNNLNNLNNHDRKHAVGDDAQFEMDIC
modifications: Atto488 maleimide on the inserted cysteine at position 121
For B5, the binding result in experiment [1] was “binds”.

The record behind these values is paper doi:10.1101/2022.01.14.476386 (bioRxiv, 2022).
